B1: POU domain, class 3, transcription factor 3, residues 320 to 388; numbered along this chain, P20264 (parent)
chain: DDLEQFAKQFKQRRIKLGFTQADVGLALGTLYGNVFSQTTICRFEALQLSFKNMCKLKPLLNKWLEEAD

Variants of: B1
Assay: abundance fitness (aPCA) (normalised: wild type 0, dead -1); higher = more abundant; growth selection in yeast, the domain comes from the species named
Conditions: Homo sapiens

Abundance fitness of substitutions, site by site:
R43: H -0.586, K -0.034, L -0.858, M -0.62, P -0.975, Q -0.113, T -0.946, W -0.866
F44: A -1.04, G -0.772, K -0.696, L -0.859, M -0.725, P -1.02, R -0.946, V -0.678, W -0.568
E45: A -0.511, F -0.58, G -0.982, K -0.649, L -0.628, M -0.82, P -0.803, Q 0.081, R -0.891, S -0.628, T -0.729, V -0.946, W -0.787
A46: C -0.299, D -0.573, E -0.178, G -0.053, H -0.043, I -0.727, K 0.205, M 0.22, P -0.843, Q -0.282, R -0.277, S -0.059, T -0.142, V -0.702, W -0.601
L47: A -0.342, C 0.021, D -0.661, E -0.662, F -0.293, G -0.038, H 0.083, K -0.111, M 0.113, N 0.599, R 0.039, S -0.29, T -0.602, V -0.039, Y -0.131
Q48: A -0.612, E -0.088, G -0.264, I -0.835, K -0.177, L -0.375, M -0.599, R -0.416, S -0.205, T -0.187, W -0.453
L49: A -0.441, C -0.873, E -0.573, F -0.865, H -0.697, I -1.01, K -0.548, M -0.078, N -0.594, P -0.65, R -0.385, S -0.649, T -0.846, V -0.934, W -0.021, Y -0.582
S50: A -0.751, C -0.786, D -0.074, E -0.18, F -0.711, G -0.561, K -0.302, L -0.833, N -0.922, P 0.034, Q 0.161, V -1.04
F51: A -0.081, C -0.416, D -0.14, E 0.115, G -0.136, H 0.051, I -0.51, K 0.132, M -0.231, N -0.002, P 0.064, Q 0.142, R 0.035, S -0.002, T 0.061, V 0.013, W -0.567, Y -0.247
K52: N -0.093
N53: A -0.035, C -0.255, D 0.012, E 0.049, F -0.513, G -0.148, H -0.09, I -0.167, L -0.148, M 0.114, P -0.613, Q -0.044, R -0.037, S -0.257, T 0.051, V -0.306, W -0.102, Y -0.357
M54: C -0.636, F -0.96, I -0.911, L -0.428, P -1.05, Q -0.7, R -0.909, S -0.483, T -0.733, W -0.801
C55: E -0.255, F 0.253, G -0.354, H -0.199, I -0.046, K -0.009, L -0.156, M -0.032, N -0.102, P -0.874, Q 0.209, S -0.102, T -0.186, V 0.019, W -0.177, Y -0.269
K56: C -0.391, D -0.163, E -0.066, F -0.11, G -0.539

Source: the Human Domainome abundance scans (Beltran et al. 2025)
